Square brackets hold non-standard residues; d marks the D form. Ends that are not written are not given here. Aib = CC(C)(N)C(=O)O
T1: human glucose-dependent insulinotropic peptide receptor (human, UniProt P48546)
T1 sequence: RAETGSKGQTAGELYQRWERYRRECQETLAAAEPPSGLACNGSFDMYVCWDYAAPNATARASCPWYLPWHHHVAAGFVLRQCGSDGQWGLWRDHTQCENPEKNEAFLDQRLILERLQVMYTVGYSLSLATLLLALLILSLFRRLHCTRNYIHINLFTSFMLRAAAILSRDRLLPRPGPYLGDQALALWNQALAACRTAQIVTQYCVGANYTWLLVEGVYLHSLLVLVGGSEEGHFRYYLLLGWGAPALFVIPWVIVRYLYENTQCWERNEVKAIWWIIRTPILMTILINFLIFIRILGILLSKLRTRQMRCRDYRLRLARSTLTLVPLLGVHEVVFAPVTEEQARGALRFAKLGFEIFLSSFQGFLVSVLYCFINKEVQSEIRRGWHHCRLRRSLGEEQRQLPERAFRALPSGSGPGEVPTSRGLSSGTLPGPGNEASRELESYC

B1: Compound No. 12 (peptide)
peptide: Y[Aib]EGTFTSDYSIYLE[Aib]EAAKEFVNWLLAGGPSSGAPPPSK-NH2
modifications: N-terminus assumed
SMILES: CC[C@H](C)[C@H](NC(=O)[C@H](CO)NC(=O)[C@H](Cc1ccc(O)cc1)NC(=O)[C@H](CC(=O)O)NC(=O)[C@H](CO)NC(=O)[C@@H](NC(=O)[C@H](Cc1ccccc1)NC(=O)[C@@H](NC(=O)CNC(=O)[C@H](CCC(=O)O)NC(=O)C(C)(C)NC(=O)[C@@H](N)Cc1ccc(O)cc1)[C@@H](C)O)[C@@H](C)O)C(=O)N[C@@H](Cc1ccc(O)cc1)C(=O)N[C@@H](CC(C)C)C(=O)N[C@@H](CCC(=O)O)C(=O)NC(C)(C)C(=O)N[C@@H](CCC(=O)O)C(=O)N[C@@H](C)C(=O)N[C@@H](C)C(=O)N[C@@H](CCCCN)C(=O)N[C@@H](CCC(=O)O)C(=O)N[C@@H](Cc1ccccc1)C(=O)N[C@H](C(=O)N[C@@H](CC(N)=O)C(=O)N[C@@H](Cc1c[nH]c2ccccc12)C(=O)N[C@@H](CC(C)C)C(=O)N[C@@H](CC(C)C)C(=O)N[C@@H](C)C(=O)NCC(=O)NCC(=O)N1CCC[C@H]1C(=O)N[C@@H](CO)C(=O)N[C@@H](CO)C(=O)NCC(=O)N[C@@H](C)C(=O)N1CCC[C@H]1C(=O)N1CCC[C@H]1C(=O)N1CCC[C@H]1C(=O)N[C@@H](CO)C(=O)N[C@@H](CCCCN)C(N)=O)C(C)C
B2: Compound No. 11 (peptide)
peptide: Y[Aib]EGTFTSDYSIYLEKEAQKEFVNWLLAGGPSSGAPPPSK-NH2
modifications: N-terminus assumed
SMILES: CC[C@H](C)[C@H](NC(=O)[C@H](CO)NC(=O)[C@H](Cc1ccc(O)cc1)NC(=O)[C@H](CC(=O)O)NC(=O)[C@H](CO)NC(=O)[C@@H](NC(=O)[C@H](Cc1ccccc1)NC(=O)[C@@H](NC(=O)CNC(=O)[C@H](CCC(=O)O)NC(=O)C(C)(C)NC(=O)[C@@H](N)Cc1ccc(O)cc1)[C@@H](C)O)[C@@H](C)O)C(=O)N[C@@H](Cc1ccc(O)cc1)C(=O)N[C@@H](CC(C)C)C(=O)N[C@@H](CCC(=O)O)C(=O)N[C@@H](CCCCN)C(=O)N[C@@H](CCC(=O)O)C(=O)N[C@@H](C)C(=O)N[C@@H](CCC(N)=O)C(=O)N[C@@H](CCCCN)C(=O)N[C@@H](CCC(=O)O)C(=O)N[C@@H](Cc1ccccc1)C(=O)N[C@H](C(=O)N[C@@H](CC(N)=O)C(=O)N[C@@H](Cc1c[nH]c2ccccc12)C(=O)N[C@@H](CC(C)C)C(=O)N[C@@H](CC(C)C)C(=O)N[C@@H](C)C(=O)NCC(=O)NCC(=O)N1CCC[C@H]1C(=O)N[C@@H](CO)C(=O)N[C@@H](CO)C(=O)NCC(=O)N[C@@H](C)C(=O)N1CCC[C@H]1C(=O)N1CCC[C@H]1C(=O)N1CCC[C@H]1C(=O)N[C@@H](CO)C(=O)N[C@@H](CCCCN)C(N)=O)C(C)C

Key:
[1] = molecular target: human glucagon-like peptide-1 receptor (human, UniProt P43220); test: cell-based or functional assay
[2] = molecular target: T1, human glucose-dependent insulinotropic …; test: cell-based or functional assay

Binder | Activity for human GLP-1R (EC50 nM), cAMP HTRF [1] | Activity for human GIPR (EC50 nM), cAMP HTRF [2]
B1 | 0.013 nM | 0.081 nM
B2 | 0.08 nM | 0.014 nM

— patent US20220168396A1, “MULTI-RECEPTOR AGONIST AND MEDICAL USE THEREOF” (published 2022)
